Experimental data: article PMC2822742

Molecular target: RBPJκ in Raji cell extract (human (endogenous in Raji)) (UniProt Q06330)
Experiment: native gel or EMSA

Sequence of UniProt Q06330 (Q06330 whole entry): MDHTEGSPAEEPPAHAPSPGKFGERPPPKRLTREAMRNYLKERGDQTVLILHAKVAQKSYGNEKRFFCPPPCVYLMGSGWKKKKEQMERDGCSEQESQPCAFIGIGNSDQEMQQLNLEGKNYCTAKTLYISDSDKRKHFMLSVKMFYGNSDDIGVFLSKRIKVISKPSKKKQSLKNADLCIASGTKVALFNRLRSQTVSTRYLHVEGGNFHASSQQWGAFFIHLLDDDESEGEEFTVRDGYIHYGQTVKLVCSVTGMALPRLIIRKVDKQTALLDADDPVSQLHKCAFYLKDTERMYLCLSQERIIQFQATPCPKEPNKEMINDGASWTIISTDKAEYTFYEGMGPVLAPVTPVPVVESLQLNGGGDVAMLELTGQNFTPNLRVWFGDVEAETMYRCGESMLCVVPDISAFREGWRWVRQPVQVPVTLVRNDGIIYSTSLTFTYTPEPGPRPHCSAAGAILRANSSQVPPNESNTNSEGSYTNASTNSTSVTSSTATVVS

Which decrease in EMSA signal intensity, AdOx-treated against untreated extract does the source give for “EBNA2 in Raji cell extract (from UniProt P12978 1-487) (natural protein)” here?
Its decrease in EMSA signal intensity, AdOx-treated against untreated extract is 30 to 67%.
